± gives the uncertainty stated by the source.
Assay: self-splicing fitness, log relative to wild type (ln ratio); higher = more splicing; Tetrahymena group I intron in knt gene, E. coli kanamycin selection, DiMSum; sequences stand for … in CUCUCU…GGAGGGAAAAGUUAUCAGGCAUGCACCUGGUAGCUAGUCUUUAAACCAAUAGAUUGCAUCGGUUUAAAAGGCAAGACCGUCAAAUUGCGGGAAAGGGGUCAACAGCCGUUCAGUACCAAGUCUCAGGGGAAACUUUGAGAUGGCCUUGCAAAGGGUAUGGUAAUAAGCUGACGGACAUGGUCCUAACCACGCAGCCAAGUCCUAAGUCAACAGAUCUUCUGUUGAUAUGGAUGCAGUUCACAGACUAAAUGUCGGUCGGGGAAGAUGUAUUCUUCUCAUAAGAUAUAGUCGGACCUCUCCUUAAUGGGAGCUAGCGGAUGAAGUGAUGCAACACUGGAGCCGCUGGGAACUAAUUUGUAUGCGAAAGUAUAUUGAUUAGUUUUGGAGUACUCGUGGUCG
Method in brief: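 Pooled colonies went to amplicon sequencing on an Illumina HiSeq 2500 after six replicate transformations. The plates were LB agar with 100 μg/mL carbenicillin, 50 μM IPTG and 0.2% rhamnose, with or without 25 μg/mL kanamycin, incubated overnight at 37°C or 30°C. The E. coli BL21(DE3) library had all eight P1ex-region intron nucleotides randomised, the intron placed in the knt kanamycin-resistance gene on pET-22b(+). DiMSum fitness is the error-weighted combination of replicate fold changes, kanamycin against none, normalised to wild type.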

| Sequence | self-splicing fitness (ln) (30 °C) | self-splicing fitness (ln) (37 °C) |
| --- | --- | --- |
| UCUGAGCAAUAUUACGGUGU | -2.79 ± 0.19 | -1.84 ± 0.28 |
| UCUGAGCAAUAUUACGGUUC | – | -2.51 ± 0.4 |
| UCUGAGCAAUAUUACGGUUU | -3.14 ± 0.23 | -1.4 ± 0.24 |
| UCUGAGCAAUAUUACGUAUA | -2.36 ± 0.17 | -2.39 ± 0.18 |
| UCUGAGCAAUAUUACGUAUG | -3.07 ± 0.18 | -2.07 ± 0.17 |
| UCUGAGCAAUAUUACGUGUA | -2.67 ± 0.18 | -0.868 ± 0.13 |
| UCUGAGCAAUAUUACGUUGA | -1.89 ± 0.1 | -0.656 ± 0.085 |
| UCUUAGCAAUAUUACGAAGG | -2 ± 0.39 | 1.19 ± 0.23 |
| UCUUAGCAAUAUUACGAAGU | -1.65 ± 0.15 | -1.42 ± 0.27 |
| UCUUAGCAAUAUUACGAGGA | -2.34 ± 0.19 | -1.58 ± 0.19 |
| UCUUAGCAAUAUUACGAUGG | -0.765 ± 0.15 | 0.551 ± 0.15 |
| UCUUAGCAAUAUUACGAUGU | -1.95 ± 0.11 | -0.623 ± 0.13 |
| UCUUAGCAAUAUUACGCCCG | -1.07 ± 0.32 | -1.34 ± 0.34 |
| UCUUAGCAAUAUUACGCCGA | -2.03 ± 0.28 | -0.379 ± 0.38 |
| UCUUAGCAAUAUUACGCGAC | – | -3.07 ± 0.32 |
| UCUUAGCAAUAUUACGCGCU | -3.3 ± 0.47 | -3.27 ± 0.39 |
| UCUUAGCAAUAUUACGCGGU | -3.5 ± 0.2 | -2.76 ± 0.26 |
| UCUUAGCAAUAUUACGGAUA | -2.68 ± 0.25 | -2.18 ± 0.24 |
| UCUUAGCAAUAUUACGGCGC | -2.61 ± 0.39 | – |
| UCUUAGCAAUAUUACGGGAU | -3.65 ± 0.33 | -2.65 ± 0.36 |
| UCUUAGCAAUAUUACGUAGG | -1.26 ± 0.11 | 0.0819 ± 0.16 |
| UCUUAGCAAUAUUACGUAUG | -1.33 ± 0.15 | -0.892 ± 0.18 |
| UCUUAGCAAUAUUACGUAUU | -3.1 ± 0.28 | -3.54 ± 0.39 |
| UCUUAGCAAUAUUACGUGAC | -2.81 ± 0.18 | -3.32 ± 0.4 |
| UCUUAGCAAUAUUACGUGGG | -3.96 ± 0.23 | -2.21 ± 0.18 |

| Sequence | self-splicing fitness (ln) (30 °C) | self-splicing fitness (ln) (37 °C) |
| --- | --- | --- |
| UCUUAGCAAUAUUACGUGGU | -3.39 ± 0.16 | -3.1 ± 0.23 |
| UCUUAGCAAUAUUACGUUAU | -3.27 ± 0.28 | -2.3 ± 0.28 |
| UCUUAGCAAUAUUACGUUGA | -2.76 ± 0.22 | -1.94 ± 0.18 |
| UGAAAGCAAUAUUACGACAC | -2.11 ± 0.34 | -1.18 ± 0.4 |
| UGAAAGCAAUAUUACGACCU | -0.0194 ± 0.1 | 0.188 ± 0.12 |
| UGAAAGCAAUAUUACGACUU | -0.765 ± 0.12 | 0.423 ± 0.15 |
| UGAAAGCAAUAUUACGAGAU | -2.93 ± 0.14 | -2.18 ± 0.19 |
| UGAAAGCAAUAUUACGAGGU | -4.07 ± 0.31 | -1.72 ± 0.23 |
| UGAAAGCAAUAUUACGAUAA | -0.879 ± 0.11 | -0.129 ± 0.13 |
| UGAAAGCAAUAUUACGCACC | -0.796 ± 0.2 | -0.513 ± 0.26 |
| UGAAAGCAAUAUUACGCAGA | -1.68 ± 0.12 | -1.93 ± 0.15 |
| UGAAAGCAAUAUUACGCAUU | -3.13 ± 0.23 | – |
| UGAAAGCAAUAUUACGCCAC | – | -2.67 ± 0.48 |
| UGAAAGCAAUAUUACGCCCG | -0.527 ± 0.15 | -0.0303 ± 0.21 |
| UGAAAGCAAUAUUACGCGGC | -3.44 ± 0.33 | -2.07 ± 0.24 |
| UGAAAGCAAUAUUACGCGUG | -0.951 ± 0.049 | -0.284 ± 0.064 |
| UGAAAGCAAUAUUACGCUCG | -1.22 ± 0.14 | 0.141 ± 0.18 |
| UGAAAGCAAUAUUACGGACU | 0.219 ± 0.079 | 0.125 ± 0.094 |
| UGAAAGCAAUAUUACGGCGA | -0.22 ± 0.1 | -0.0348 ± 0.099 |
| UGAAAGCAAUAUUACGGUCC | -0.844 ± 0.072 | -0.196 ± 0.095 |
| UGAAAGCAAUAUUACGUAAC | – | -1.29 ± 0.25 |
| UGAAAGCAAUAUUACGUAAU | -3.71 ± 0.14 | -0.793 ± 0.11 |
| UGAAAGCAAUAUUACGUCCG | 0.111 ± 0.1 | 0.472 ± 0.14 |
| UGAAAGCAAUAUUACGUGGA | -2.89 ± 0.15 | -2.69 ± 0.18 |

Reference: the supplement of paper PMC7877785
